Results as given in EP4613859A1, “TLR SIGNALING INHIBITORY PEPTIDE AND COMPOSITION INCLUDING SAME FOR PREVENTION OR TREATMENT OF INFLAMMATORY DISEASES” (Korea Institute of Science and Technology, priority 2022, dated 2025).

How the values were obtained:
[1] = molecular target: human MAL (human) (UniProt P58753); test: P8 phage display panning on plate-immobilised MAL, after round 4, NGS
[2] = molecular target: human MyD88 (human) (UniProt Q99836); test: P3 phage display panning on plate-immobilised MyD88, after round 4, NGS
[3] = molecular target: human MAL (human) (UniProt P58753); test: P3 phage display panning on plate-immobilised MAL, after round 4, NGS
[4] = molecular target: human MyD88 (human) (UniProt Q99836); test: P8 phage display panning on plate-immobilised MyD88, after round 4, NGS

Sequence of UniProt Q99836 (Q99836 155-296 limits assumed): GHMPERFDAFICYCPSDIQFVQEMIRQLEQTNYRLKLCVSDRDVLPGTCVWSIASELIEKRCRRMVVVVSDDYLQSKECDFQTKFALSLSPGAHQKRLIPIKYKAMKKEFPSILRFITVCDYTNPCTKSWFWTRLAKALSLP
Sequence of UniProt P58753 (P58753 79-221 limits assumed): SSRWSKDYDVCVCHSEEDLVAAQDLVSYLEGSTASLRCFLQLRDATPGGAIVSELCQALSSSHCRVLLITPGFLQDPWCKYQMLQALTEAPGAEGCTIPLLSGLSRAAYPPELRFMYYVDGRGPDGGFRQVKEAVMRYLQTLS

Binder	NGS count [1] [count]	Population [1] [%]	further results
SEFIQKIILWMNPKIV	4460	1.38	–
YLKWGYPWFWDRLRFA	517	0.19	NGS count [2]: 7320 count; Population [2]: 2.13%; NGS count [3]: 1680 count; Population [3]: 0.63%
AFFWEQLRTVLGKPTM	11800	3.65	–
YLISYIFNELARAGFS	295	0.09	–
AFLYTFLINLTHPTNF	51100	18.9	–
ESILNQLRRSSQSIAN	–	–	NGS count [2]: 1980 count; Population [2]: 0.58%; NGS count [3]: 3680 count; Population [3]: 1.38%
RNNFIGHLYQALYRIG	3120	0.96	–
QLIQQWIELHLHQLHL	9390	2.9	NGS count [4]: 1600 count; Population [4]: 0.62%
LFFWESLKQLLRSDGR	22600	5.97	–
TFLGHLYNALVQAGIH	24700	7.64	–
HFFWIQLKSILGETSF	3620	1.12	–
SLLYDHLRWLGIRAFL	2580	0.8	–
WFLTAFRMAMDQVADT	353	0.11	–
KLFWEKFKEFFLPSLSR	4890	1.51	–
AFFWAQLKSVLGNPTM	28800	8.9	–
AWALHQLQQIINWHET	232	0.07	–

Binder	NGS count [1] [count]	Population [1] [%]	further results
WFYERLVSLILRDTKV	79000	24.4	–
WALQELVKILQAKIFL	227	0.07	–
YFLHFLLFSRPETEYI	17200	5.31	–
WFLFTVRSAIYAMSPA	3160	0.97	–
RNFVAYLFQALANKGI	28000	8.63	–
KEVEGWRDALTKVASL	–	–	NGS count [2]: 5190 count; Population [2]: 1.8%; NGS count [3]: 3760 count; Population [3]: 1.41%
LKWGDPYFWSKLRYAM	–	–	NGS count [2]: 8310 count; Population [2]: 2.42%; NGS count [3]: 5130 count; Population [3]: 1.93%
YNFISHLYDALHRNRI	–	–	NGS count [2]: 2890 count; Population [2]: 0.84%; NGS count [3]: 2680 count; Population [3]: 1.01%
DFLNWFIALKSTVIEN	867	0.27	–
DTKLKKGESIAPELLR	5620	1.74	NGS count [2]: 2460 count; Population [2]: 0.72%
WFMMKFRTVLDHVNDV	2270	0.7	–
NQWRNALTAAANLSGW	848	0.26	NGS count [2]: 28700 count; Population [2]: 8.35%; NGS count [3]: 25800 count; Population [3]: 9.71%
KLIQGWFLYRLLKIEQ	2070	0.64	–
FTLAVHVRNWLVGGFI	520	0.19	–
KFIWDIINAISSQIRV	146	0.05	–
